Measurements reported in article PMC5739299 (Molecular Biology of the Cell, 2017).

Target: T1, Alcadein α-FLAG, wild type, dephosphorylated with λPPase (human, UniProt O94985-2 29-971, dephosphorylated with λPPase on the beads)
T1 sequence (looked up): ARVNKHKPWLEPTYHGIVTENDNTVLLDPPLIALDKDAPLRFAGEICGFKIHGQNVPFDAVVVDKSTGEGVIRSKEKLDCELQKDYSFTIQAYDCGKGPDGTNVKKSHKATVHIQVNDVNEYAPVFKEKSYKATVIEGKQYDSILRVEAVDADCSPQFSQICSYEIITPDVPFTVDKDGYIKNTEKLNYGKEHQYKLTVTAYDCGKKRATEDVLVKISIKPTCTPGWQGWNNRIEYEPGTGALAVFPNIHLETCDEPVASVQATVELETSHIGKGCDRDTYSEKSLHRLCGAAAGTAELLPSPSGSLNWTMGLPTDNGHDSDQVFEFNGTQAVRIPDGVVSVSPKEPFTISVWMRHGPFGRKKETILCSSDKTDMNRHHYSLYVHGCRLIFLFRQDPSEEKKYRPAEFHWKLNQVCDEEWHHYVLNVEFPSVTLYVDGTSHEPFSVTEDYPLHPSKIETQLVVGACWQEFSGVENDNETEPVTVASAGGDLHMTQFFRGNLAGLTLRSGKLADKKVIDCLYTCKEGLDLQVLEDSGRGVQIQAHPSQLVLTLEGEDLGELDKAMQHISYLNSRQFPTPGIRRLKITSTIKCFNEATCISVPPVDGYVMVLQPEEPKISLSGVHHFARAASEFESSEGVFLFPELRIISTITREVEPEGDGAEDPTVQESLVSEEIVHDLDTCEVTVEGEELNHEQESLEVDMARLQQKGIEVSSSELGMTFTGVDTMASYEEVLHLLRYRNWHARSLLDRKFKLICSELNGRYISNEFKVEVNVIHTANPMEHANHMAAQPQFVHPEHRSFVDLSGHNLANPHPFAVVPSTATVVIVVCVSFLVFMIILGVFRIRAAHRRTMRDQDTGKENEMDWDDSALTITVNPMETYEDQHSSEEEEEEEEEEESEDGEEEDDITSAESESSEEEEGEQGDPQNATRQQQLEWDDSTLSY
Test: pull-down

B1: HA-KLC1 (kinesin light chain 1) (natural protein, UniProt O88447 1-541, looked up)
chain: MYDNMSTMVYIKEEKLENVTQDEIISKTKQVIQGLEALKNEHNSILQSLLETLKCLKKDDESNLVEEKSSMIRKSLEMLELGLSEAQVMMALSNHLNAVESEKQNVRAQVRRLCQENQWLRDELANTQQKLQKSEQSVAQLEEEKKHLEFMNQLKKYDDDISPSEDKDSDSSKEPLDDLFPNDEDEPGQGIQHSDSSAAAARQGYEIPARLRTLHNLVIQYASQGRYEVAVPSCKQALEDLEKTSGHDHPDVATMLNILALVYRDQNKYKDAANLLNDALAIREKTLGRDHPAVAATLNNLAVLYGKRGKYKEAEPLCKRALEIREKVLGKDHPDVAKQLNNLALLCQNQGKYEEVEYYYQRALGIYQTKLGPDRTPNVAKTKNNLASCYLKQGKFKQAETLYKEILTRAHEAEFGSVDDENKPIWMHAEEREECKGKQKDGSAFGEYGGWYKACKVDSPTVTTTLKNLGALYRRQGKFEAAETLEEAAMRSRKQGLDNVHKQRVAEVLNDPESMEKRRSRESLNMDVVKYESGPDGGEEA
recovery of HA-KLC1 relative to Alcα-FLAG without λPPase treatment: ~20%
